In publication doi:10.1101/2022.11.05.515281v1 one finds Km, kcat and kcat/Km data, which are given here for 2 proteins.

What all share (assay): purified protein, by the assay type
Substrate in series [1]: CC1=CC(=O)CC(C)(C)C1=O
Substrate in series [2]: CC1=CC(=O)[C@H]2C[C@@H]1C2(C)C
Substrate in series [3]: C=C(C)[C@H]1CC=C(C)C(=O)C1
Substrate in series [4]: CC1=CCCC1=O
Substrate in series [5]: CC1=CC(=O)CC1
Substrate in series [6]: O=[N+]([O-])C1=CCCCC1
Substrate in series [7]: COC(=O)C1=CCCCC1

B1: MSMEG_2027 (Mycolicibacterium smegmatis MC2 155) (protein)
chain: MTDAELSPTDWVREQTERILEQGTTDGVHVLDRPIVLFTTTGAKSGKKRYVPLMRVEENGKYAMVASKGGDPKHPSWYFNVKANPTVSVQDGDKVLPDRTARELEGEEREHWWKLAVEAYPPYAEYQTKTDRLIPVFIVE
B1: the Km (usually the concentration of substrate that gives half-maximal velocity) in series [1] is given as 4.550 ± 0.3606 mM; in series [2], 2.583 ± 0.6672 mM; in series [3], 3.099 ± 0.9164 mM; in series [4] it was 1.514 ± 0.1110 mM. In addition, the kcat (commonly the number of substrate molecules converted per active site and unit of time at saturation) in series [1] was found to be 0.459 ± 0.013 s⁻¹; in series [2], 0.048 ± 0.0049 s⁻¹; in series [3], 0.12 ± 0.0114 s⁻¹; in series [4], 0.783 ± 0.0157 s⁻¹. Also, the kcat/Km (usually the turnover number divided by the Michaelis constant) in series [1] amounted to 101 ± 5.7 M⁻¹ s⁻¹; in series [2] it was 18.6 ± 3.22 M⁻¹ s⁻¹; in series [3] it was 38.7 ± 8.62 M⁻¹ s⁻¹; in series [4], 517 ± 30.8 M⁻¹ s⁻¹.

B2: MSMEG_2850 (Mycolicibacterium smegmatis MC2 155) (protein)
chain: MTEAIDWDQMNNQVIKEFRETGGKAGGLFEGSPLVLVHHTGAKSGKQRIAPLVPLLDGDRIYIFGSKGGADSHPDWYHNLVANPDTVVELGTETFPVKARVLTGAERDEIYAKQVAVAPQFGDYQRKTTRVIPVVELQRV
With B2, in series [5], the Km was 0.862 ± 0.5080 mM, the kcat was determined as 0.018 ± 0.0026 s⁻¹ and the kcat/Km came to 21 ± 10.5 M⁻¹ s⁻¹. Further, in series [6], the Km is 1.739 ± 0.1369 mM, the kcat is 1.07 ± 0.0295 s⁻¹ and the kcat/Km amounted to 617 ± 35 M⁻¹ s⁻¹. Also, in series [7], the Km is 4.355 ± 0.3126 mM, the kcat was 0.279 ± 0.0071 s⁻¹ and the kcat/Km came to 64.1 ± 3.29 M⁻¹ s⁻¹.
